Measurements taken from US20140087995A1 (published 2014).
Numbered stars: 1 amine (or outer) side, 2 acyl side, 3 side chain; on linkers, the order of the positions; unused ones are H or OH. Bridge positions count the residues as written; N and C are the ends. Side chains are listed from the residue outwards. Ends that are not written are not given here. * marks the point of attachment. C20 diacid = O=C(O)CCCCCCCCCCCCCCCCCCC(=O)*; γGlu = O=C(O)[C@H](CCC(=O)[*:2])N[*:1]; AEEA = NCCOCCOCC(=O)O

T1: human calcitonin receptor (human, UniProt P30988 25-474)
T1 construct: whole, on cells; also called hCTR; hCT
T1 sequence (looked up): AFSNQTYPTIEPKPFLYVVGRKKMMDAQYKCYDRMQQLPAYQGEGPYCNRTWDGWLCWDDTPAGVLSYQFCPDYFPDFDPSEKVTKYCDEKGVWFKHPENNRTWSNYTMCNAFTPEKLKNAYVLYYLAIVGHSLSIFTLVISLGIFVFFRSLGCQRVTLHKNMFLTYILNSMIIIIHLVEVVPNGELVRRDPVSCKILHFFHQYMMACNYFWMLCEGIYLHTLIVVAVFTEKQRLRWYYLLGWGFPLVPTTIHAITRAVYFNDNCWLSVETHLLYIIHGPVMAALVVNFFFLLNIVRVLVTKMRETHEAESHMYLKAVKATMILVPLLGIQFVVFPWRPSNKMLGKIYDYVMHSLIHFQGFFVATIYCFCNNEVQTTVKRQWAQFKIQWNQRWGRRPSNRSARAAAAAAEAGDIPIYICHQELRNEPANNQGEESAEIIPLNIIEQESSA

B1: N^ε1-[2-[2-[2-[[(4S)-4-carboxy-4-(19-carboxynonadecanoylamino)butanoyl]amino]ethoxy]ethoxy]acetyl]-[Arg14,Arg17,Pro21,Pro27]-h-amylin (peptide)
peptide: K([AEEA-γGlu-C20 diacid])CNTATCATQRLARFLRHSSPNFGAIPSSTNVGSNTY-NH2
modifications: disulfide 2-7; N-terminus assumed
SMILES: CC[C@H](C)[C@H](NC(=O)[C@H](C)NC(=O)CNC(=O)[C@H](Cc1ccccc1)NC(=O)[C@H](CC(N)=O)NC(=O)[C@@H]1CCCN1C(=O)[C@H](CO)NC(=O)[C@H](CO)NC(=O)[C@H](Cc1c[nH]cn1)NC(=O)[C@H](CCCNC(=N)N)NC(=O)[C@H](CC(C)C)NC(=O)[C@H](Cc1ccccc1)NC(=O)[C@H](CCCNC(=N)N)NC(=O)[C@H](C)NC(=O)[C@H](CC(C)C)NC(=O)[C@H](CCCNC(=N)N)NC(=O)[C@H](CCC(N)=O)NC(=O)[C@@H](NC(=O)[C@H](C)NC(=O)[C@@H]1CSSC[C@H](NC(=O)[C@@H](N)CCCCNC(=O)COCCOCCNC(=O)CC[C@H](NC(=O)CCCCCCCCCCCCCCCCCCC(=O)O)C(=O)O)C(=O)N[C@@H](CC(N)=O)C(=O)N[C@@H]([C@@H](C)O)C(=O)N[C@@H](C)C(=O)N[C@@H]([C@@H](C)O)C(=O)N1)[C@@H](C)O)C(=O)N1CCC[C@H]1C(=O)N[C@@H](CO)C(=O)N[C@@H](CO)C(=O)N[C@H](C(=O)N[C@@H](CC(N)=O)C(=O)N[C@H](C(=O)NCC(=O)N[C@@H](CO)C(=O)N[C@@H](CC(N)=O)C(=O)N[C@H](C(=O)N[C@@H](Cc1ccc(O)cc1)C(N)=O)[C@@H](C)O)C(C)C)[C@@H](C)O
notes: also called compound 82
B2: N^ε1-[2-[2-[2-[[(4S)-4-carboxy-4-(19-carboxynonadecanoylamino)butanoyl]amino]ethoxy]ethoxy]acetyl]-[His14,Arg17,Pro21,Pro27,Arg34]-h-amylin (peptide)
peptide: K([AEEA-γGlu-C20 diacid])CNTATCATQRLAHFLRHSSPNFGAIPSSTNVGRNTY-NH2
modifications: disulfide 2-7; N-terminus assumed
SMILES: CC[C@H](C)[C@H](NC(=O)[C@H](C)NC(=O)CNC(=O)[C@H](Cc1ccccc1)NC(=O)[C@H](CC(N)=O)NC(=O)[C@@H]1CCCN1C(=O)[C@H](CO)NC(=O)[C@H](CO)NC(=O)[C@H](Cc1c[nH]cn1)NC(=O)[C@H](CCCNC(=N)N)NC(=O)[C@H](CC(C)C)NC(=O)[C@H](Cc1ccccc1)NC(=O)[C@H](Cc1c[nH]cn1)NC(=O)[C@H](C)NC(=O)[C@H](CC(C)C)NC(=O)[C@H](CCCNC(=N)N)NC(=O)[C@H](CCC(N)=O)NC(=O)[C@@H](NC(=O)[C@H](C)NC(=O)[C@@H]1CSSC[C@H](NC(=O)[C@@H](N)CCCCNC(=O)COCCOCCNC(=O)CC[C@H](NC(=O)CCCCCCCCCCCCCCCCCCC(=O)O)C(=O)O)C(=O)N[C@@H](CC(N)=O)C(=O)N[C@@H]([C@@H](C)O)C(=O)N[C@@H](C)C(=O)N[C@@H]([C@@H](C)O)C(=O)N1)[C@@H](C)O)C(=O)N1CCC[C@H]1C(=O)N[C@@H](CO)C(=O)N[C@@H](CO)C(=O)N[C@H](C(=O)N[C@@H](CC(N)=O)C(=O)N[C@H](C(=O)NCC(=O)N[C@@H](CCCNC(=N)N)C(=O)N[C@@H](CC(N)=O)C(=O)N[C@H](C(=O)N[C@@H](Cc1ccc(O)cc1)C(N)=O)[C@@H](C)O)C(C)C)[C@@H](C)O
notes: also called compound 84
B3: N^ε1-[2-[2-[2-[[(4S)-4-carboxy-4-(19-carboxynonadecanoylamino)butanoyl]amino]ethoxy]ethoxy]acetyl]-[Arg17,Pro21,Pro27,Arg34]-h-amylin (peptide)
peptide: K([AEEA-γGlu-C20 diacid])CNTATCATQRLANFLRHSSPNFGAIPSSTNVGRNTY-NH2
modifications: disulfide 2-7; N-terminus assumed
SMILES: CC[C@H](C)[C@H](NC(=O)[C@H](C)NC(=O)CNC(=O)[C@H](Cc1ccccc1)NC(=O)[C@H](CC(N)=O)NC(=O)[C@@H]1CCCN1C(=O)[C@H](CO)NC(=O)[C@H](CO)NC(=O)[C@H](Cc1c[nH]cn1)NC(=O)[C@H](CCCNC(=N)N)NC(=O)[C@H](CC(C)C)NC(=O)[C@H](Cc1ccccc1)NC(=O)[C@H](CC(N)=O)NC(=O)[C@H](C)NC(=O)[C@H](CC(C)C)NC(=O)[C@H](CCCNC(=N)N)NC(=O)[C@H](CCC(N)=O)NC(=O)[C@@H](NC(=O)[C@H](C)NC(=O)[C@@H]1CSSC[C@H](NC(=O)[C@@H](N)CCCCNC(=O)COCCOCCNC(=O)CC[C@H](NC(=O)CCCCCCCCCCCCCCCCCCC(=O)O)C(=O)O)C(=O)N[C@@H](CC(N)=O)C(=O)N[C@@H]([C@@H](C)O)C(=O)N[C@@H](C)C(=O)N[C@@H]([C@@H](C)O)C(=O)N1)[C@@H](C)O)C(=O)N1CCC[C@H]1C(=O)N[C@@H](CO)C(=O)N[C@@H](CO)C(=O)N[C@H](C(=O)N[C@@H](CC(N)=O)C(=O)N[C@H](C(=O)NCC(=O)N[C@@H](CCCNC(=N)N)C(=O)N[C@@H](CC(N)=O)C(=O)N[C@H](C(=O)N[C@@H](Cc1ccc(O)cc1)C(N)=O)[C@@H](C)O)C(C)C)[C@@H](C)O
notes: also called compound 78
B4: N^ε1-[2-[2-[2-[[(4S)-4-carboxy-4-(19-carboxynonadecanoylamino)butanoyl]amino]ethoxy]ethoxy]acetyl]-[Gly14,Arg17,Pro21,Pro27,Pro31]-h-amylin (peptide)
peptide: K([AEEA-γGlu-C20 diacid])CNTATCATQRLAGFLRHSSPNFGAIPSSTPVGSNTY-NH2
modifications: disulfide 2-7; N-terminus assumed
SMILES: CC[C@H](C)[C@H](NC(=O)[C@H](C)NC(=O)CNC(=O)[C@H](Cc1ccccc1)NC(=O)[C@H](CC(N)=O)NC(=O)[C@@H]1CCCN1C(=O)[C@H](CO)NC(=O)[C@H](CO)NC(=O)[C@H](Cc1c[nH]cn1)NC(=O)[C@H](CCCNC(=N)N)NC(=O)[C@H](CC(C)C)NC(=O)[C@H](Cc1ccccc1)NC(=O)CNC(=O)[C@H](C)NC(=O)[C@H](CC(C)C)NC(=O)[C@H](CCCNC(=N)N)NC(=O)[C@H](CCC(N)=O)NC(=O)[C@@H](NC(=O)[C@H](C)NC(=O)[C@@H]1CSSC[C@H](NC(=O)[C@@H](N)CCCCNC(=O)COCCOCCNC(=O)CC[C@H](NC(=O)CCCCCCCCCCCCCCCCCCC(=O)O)C(=O)O)C(=O)N[C@@H](CC(N)=O)C(=O)N[C@@H]([C@@H](C)O)C(=O)N[C@@H](C)C(=O)N[C@@H]([C@@H](C)O)C(=O)N1)[C@@H](C)O)C(=O)N1CCC[C@H]1C(=O)N[C@@H](CO)C(=O)N[C@@H](CO)C(=O)N[C@H](C(=O)N1CCC[C@H]1C(=O)N[C@H](C(=O)NCC(=O)N[C@@H](CO)C(=O)N[C@@H](CC(N)=O)C(=O)N[C@H](C(=O)N[C@@H](Cc1ccc(O)cc1)C(N)=O)[C@@H](C)O)C(C)C)[C@@H](C)O
notes: also called compound 71

These binders were tested against T1, human calcitonin receptor (assay: SPA radioligand competition (125I-calcitonin), membranes of BHK cells with human calcitonin receptor).
Method: Membranes were prepared in the following way; the cells were rinsed with PBS and incubated with Versene for approximately 5 min before harvesting. The cells were flushed with PBS and the cell-suspension was centrifuged for 5 min at 1000 rpm. Cells were homogenized (Ultrathurrax) in a buffer containing 20 mM Na-HEPES and 10 mM EDTA (pH 7.4) and centrifuged at 20.000 rpm for 15 min. The resulting pellet was resuspended, homogenized and centrifuged (20.000 rpm, 15 min) in a buffer containing 20 mM Na-HEPES and 0.1 mM EDTA (pH 7.4, buffer 2). The resulting pellet was resuspended in buffer 2 and protein concentration was measured (BCA protein Assay, Pierce). The homogenate was kept cold during the whole procedure. The membranes were kept at −80° C. until use. Assay was performed in a 384 well Optiplate (PerkinElmer) in a total volume of 40 ul. Membranes were mixed with SPA beads. Final concentration of membranes 35 ng/μL final and Final concentration of SPA beads was 0.05 mg/well. Test-compounds were dissolved in DMSO and further diluted in assay buffer (50 mM Hepes, pH 7.4, 1 mM CaCl2, 5 mM MgCl₂, 0.1% OA and 0.02% Tween20). […] The final mixture was incubated for 120 min with shaking at 400 rpm at 25° C. prior to centrifugation (1500 rpm, 10 min). Samples were analyzed on TopCounter™ (Packard). The […] was calculated using (one site binding competition analysis) GraphPad Prism5 as a measure of receptor affinity.

Question: Which IC50 does the source give for B1 here?
Answer: The IC50 was 88.8 nM.

Question: With B2 as the binder, how does the IC50 read?
Answer: The IC50 was 88.9 nM.

Question: With B3 as the binder, how does the IC50 read?
Answer: The IC50 was 36.5 nM.

Question: B4 was tested. Which IC50 did it give?
Answer: Its IC50 is 1.53 nM.

The binders below were run against T1, human calcitonin receptor (assay: ratio of IC50 at human calcitonin receptor to IC50 at human amylin receptor (SPA competition assays)).
Method: The resulting pellet was resuspended, homogenized and centrifuged (20.000 rpm, 15 min) in a buffer containing 20 mM Na-HEPES and 0.1 mM EDTA (pH 7.4, buffer 2). The resulting pellet was resuspended in buffer 2 and protein concentration was measured (BCA protein Assay, Pierce). The homogenate was kept cold during the whole procedure. The membranes were kept at −80° C. until use. The assay was performed in a 384 well Optiplate (PerkinElmer) in a total volume of 40 ul. Membranes were mixed with SPA beads. Final concentration of membranes 35 ng/μL final and SPA beads was 0.05 mg/well. Test-compounds were dissolved in DMSO and further diluted in assay buffer (50 mM Hepes, pH 7.4, 1 mM CaCl2, 5 mM MgCl₂, 0.1% OA and 0.02% Tween20). […] The final mixture was incubated with shaking at 400 rpm for 120 min at 25° C. prior to centrifugation (1500 rpm, 10 min). Samples were analyzed on TopCounter™ (Packard). The IC₅₀ was calculated using (one site binding competition analysis) GraphPad Prism5 as a measure of receptor affinity.
Membranes were prepared in the following way; the cells were rinsed with PBS and incubated with Versene for approximately 5 min before harvesting. The cells were flushed with PBS and the cell-suspension was centrifuged for 5 min at 1000 rpm. Cells were homogenized (Ultrathurrax) in a buffer containing 20 mM Na-HEPES and 10 mM EDTA (pH 7.4) and centrifuged at 20.000 rpm for 15 min. The resulting pellet was resuspended, homogenized and centrifuged (20.000 rpm, 15 min) in a buffer containing 20 mM Na-HEPES and 0.1 mM EDTA (pH 7.4, buffer 2). The resulting pellet was resuspended in buffer 2 and protein concentration was measured (BCA protein Assay, Pierce). The homogenate was kept cold during the whole procedure. The membranes were kept at −80° C. until use. Assay was performed in a 384 well Optiplate (PerkinElmer) in a total volume of 40 ul. Membranes were mixed with SPA beads.

Question: B1 was tested. Which “Ratio hCT/hAmylin binding” value did it give?
Answer: Its value is 140.

Question: How did the “Ratio hCT/hAmylin binding” value turn out when B2 was run?
Answer: The value was 120.

Question: With B3 as the binder, how does the “Ratio hCT/hAmylin binding” value read?
Answer: Its value is 60.7.

Question: Which “Ratio hCT/hAmylin binding” value does the source give for B4 here?
Answer: The value was 32.
